Measured values: patent US11433139B2, “Peptide vaccines against interleukin-31” (Zoetis Services LLC, priority 2018, dated 2022)

Assays:
[1] = molecular target: feline IL-31; test: Affinity of anti-IL-31 antibodies by surface plasmon resonance (Biacore), feline IL-31 surface; assay type: binding; conditions: IL-31 conjugated to the surface (FIG. 2)
Experimental: (§1) The affinity with which candidate mAbs bind canine and feline IL-31 was determined using surface plasmon resonance (SPR) on a Biacore system (Biocore Life Sciences (GE Healthcare), Uppsala, Sweden). To avoid affinity differences associated with differential surface preparation that can occur when immobilizing antibodies to surfaces; a strategy was employed where IL-31 was directly conjugated to the surface. Immobilization was obtained by amine coupling 5 μg/mL IL-31 using N-hydroxysuccinimide (NHS)/1-Ethyl-3-(3-dimethylaminopropyl) carbodiimide (EDC) chemistry. Chips were quenched with ethanolamine and the affinity with which all candidate mAbs bound to the immobilized IL-31 was evaluated. All curves were fit to a 1:1 model. Affinity constants (KD) less than 1×10^−11M (1E-11 M) are below the lower limit of quantitation of detection for the instrument. Results for affinity measurements are described herein.
Target sequence in this assay (as listed by the source): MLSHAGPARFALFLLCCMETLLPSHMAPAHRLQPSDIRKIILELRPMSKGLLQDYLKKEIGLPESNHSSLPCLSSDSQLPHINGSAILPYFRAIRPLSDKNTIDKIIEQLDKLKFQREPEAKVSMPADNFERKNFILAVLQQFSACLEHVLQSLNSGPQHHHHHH

[2] = molecular target: canine IL-31; test: Affinity of anti-IL-31 antibodies by surface plasmon resonance (Biacore), canine IL-31 surface; assay type: binding; conditions: IL-31 conjugated to the surface (FIG. 2)
Chain of canine IL-31 (as listed by the source): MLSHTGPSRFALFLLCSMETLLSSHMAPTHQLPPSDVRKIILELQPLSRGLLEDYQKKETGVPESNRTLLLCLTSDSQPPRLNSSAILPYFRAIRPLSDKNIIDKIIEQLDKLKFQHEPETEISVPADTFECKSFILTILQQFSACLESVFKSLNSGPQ
Experimental: as §1

[3] = tested on: feline IL-31; test: IL-31 induced pruritus model in cats, antibody pre-bound to feline IL-31; assay type: in vivo, cat
Experimental: To test the preliminary efficacy of mouse: feline 11E12 chimera, mouse: feline 15H05 chimera, and felinized 11 E12 (Feline 11E12 1.1), an IL-31 induced pruritus model in cats was developed. Following an intravenous dose of 0.5 μg/kg feline IL-31 (SEQ ID NO: 159; Feline_IL-31_E_coli), the corresponding nucleotide sequence for which is (SEQ ID NO: 160; Feline_IL-31_E_coli), cats will portray transient pruritic behavior that includes (but is not limited to) licking, chewing, scratching, and head or body shaking. Rubbing up against the cage was not considered a pruritic activity. Pruritic observations take place by a trained investigator for 30 minutes prior to administration of the IL-31 protein and for 1 hour following. For this study, a baseline challenge with feline IL-31 was performed up to 1 month prior to dosing with antibody. On day zero, a 0.5 mg/kg antibody dose was combined with 0.5 μg/kg of feline IL-31 at room temperature for 60 minutes prior to injecting the pre-bound complex into each animal. A “no mAb” control was included for a control. The dose of mAb represents a gross molar excess of antibody to cytokine. Pruritic activity was monitored as described on days 0, 7, and 21.
Target sequence in this assay (as listed by the source): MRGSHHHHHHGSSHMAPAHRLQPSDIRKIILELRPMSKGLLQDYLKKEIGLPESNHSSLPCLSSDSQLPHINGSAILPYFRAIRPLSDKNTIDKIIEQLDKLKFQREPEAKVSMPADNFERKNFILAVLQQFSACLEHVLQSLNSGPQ

[4] = tested on: feline IL-31; test: Inhibition of feline IL-31 induced pSTAT3 signaling in feline FCWF4 macrophage-like cells; assay type: cell-based; conditions: for potency (IC50) against feline IL-31 in feline FCWF4 cells: 0.2 μg/mL feline IL-31, pSTAT3, FCWF4 cells (FIG. 3)
Experimental: (§2) To identify candidates with inhibitory activity, antibodies were assessed for their ability to affect IL-31-mediated STAT3 phosphorylation in either a canine or feline cell-based assay. STAT3 phosphorylation was determined in canine DH-82 (ATCC® CRL-10389™) or feline FCWF4 macrophage-like cells (ATCC CRL-2787). DH82 and FCWF4 cells were primed with canine interferon gamma (R&D Systems, Minneapolis, Minn.) at 10 ng/mL for 24 hours or feline interferon gamma (R&D Systems, Minneapolis, Minn.) at 125 ng/mL for 96 hours, respectively, to increase receptor expression. Both cell types were serum starved for 2 hours prior to IL-31 and mAb treatment. Using two independent methods, all candidate mAbs were evaluated for their ability to inhibit either 1 μg/mL canine or 0.2 μg/mL feline IL-31 induced STAT3 phosphorylation. […] To ensure complex formation, a one hour co-incubation of mAb and IL-31 cytokine prior to cell stimulation was completed. IL-31 cell stimulation was carried out for five minutes. STAT3 phosphorylation was measured using AlphaLISA SureFire ULTRA™ technology (Perkin Elmer, Waltham, Mass.). In the case where antibody concentration and purity are unknown, hybridoma supernatants were qualitatively measured for their ability to inhibit STAT3 phosphorylation following a 1 hour co-incubation with […] IL-31. The potency of individual monoclonal antibodies defined by their ability to inhibit IL-31 mediated STAT3 phosphorylation in these assays was considered the key selection criteria for further advancement of select antibodies. The term potency refers to the IC50 value calculated from these assays and is the concentration of the antibody where signaling induced by IL-31 is reduced to one half its maximal value.

[5] = tested on: feline IL-31; test: Inhibition of feline IL-31 induced pSTAT3 signaling in canine DH-82 cells; assay type: cell-based; conditions: feline IL-31, pSTAT3, canine DH82 cells (FIG. 3)
Experimental: as §2
Target sequence in this assay (as listed by the source): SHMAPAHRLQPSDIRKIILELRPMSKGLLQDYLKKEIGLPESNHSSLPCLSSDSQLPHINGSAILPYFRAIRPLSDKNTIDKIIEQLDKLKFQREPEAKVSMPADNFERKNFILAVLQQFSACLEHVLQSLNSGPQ

[6] = molecular target: T1, canine IL-31 (Canis lupus familiaris, UniProt A0A8I3S3D1); test: Inhibition of canine IL-31 induced pSTAT3 signaling in canine DH-82 and feline FCWF4 cells; assay type: cell-based; conditions: canine IL-31; canine and feline cell types, cell type of the values not specified
T1 construct: made in house; host or cells: CHO cells (CHROMOS ACE system)
T1 sequence (A0A8I3S3D1 24-159): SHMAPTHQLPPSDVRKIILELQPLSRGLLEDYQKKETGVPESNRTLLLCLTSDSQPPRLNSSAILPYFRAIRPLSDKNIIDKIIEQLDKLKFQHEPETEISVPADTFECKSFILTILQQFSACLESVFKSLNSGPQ
Experimental: as §2

[7] = tested on: equine IL-31; test: Biacore binding, single test concentration of antibody, equine IL-31 surface
Chain of equine IL-31 (as listed by the source): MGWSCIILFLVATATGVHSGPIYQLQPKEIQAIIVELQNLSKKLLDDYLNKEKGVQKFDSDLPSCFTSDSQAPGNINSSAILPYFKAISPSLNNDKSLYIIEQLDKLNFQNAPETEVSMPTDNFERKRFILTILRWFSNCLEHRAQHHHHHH
Experimental: For the indirect ELISA, binding (ELISA OD) to wildtype feline IL-31 and a feline IL-31 15H05 mutant which had mutations in the monoclonal antibody 15H05 epitope region was assessed. To confirm binding, biacore analysis was performed using canine, feline, equine, human, the feline 15H05 mutant, and feline 11E12 mutant IL-31 proteins as surfaces and a single test concentration of antibody. The feline IL-31 11E12 mutant had mutations in the monoclonal antibody 11E12 epitope region.
For the indirect ELISA method, antibody binding to wildtype and feline IL-31 15H05 mutant proteins was assessed. […] In comparison, the 11E12 antibody bound to the wild-type feline IL-31 and its binding was not impacted by the mutations in the 15H05 epitope region as evidenced by the data in FIG. 4. To confirm binding, biacore analysis was performed using canine, feline, equine, human, feline 15H05 mutant, and feline 11E12 mutant IL-31 proteins as surfaces and a single test concentration of antibody. Similar to ELISA observations, all antibodies tested bound to wildtype feline IL-31. In agreement with the data described above in this section, mouse antibodies 11 E12 and 15H05 both bound to canine and feline IL-31 surfaces. […] From this group of nine fully canine antibodies, only ZIL1 and ZIL9 cross-reacted with equine IL-31. Of note, antibody 15H05 was the only one of all assayed herein that bound to canine, feline, and equine IL-31 indicating some level of epitope conservation across the three species. In contrast, none of the antibodies described herein bound to human IL-31. Additional biacore surfaces were used to verify ELISA observations showing differential binding of antibodies to wildtype feline IL-31 and two proteins with mutations in the 15H05 (15H05 mutant) or 11 E12 (11E12 mutant) epitopes. […] Differing results can be attributed to differences in the two assay methodologies.

[8] = 0.5 mg/kg antibody pre-bound with 0.5 μg/kg feline IL-31, days 0, 7, 21

B1: mouse: feline 11E12 chimera: mouse 11E12 variable regions on feline IgG constant regions (antibody)
heavy: QVQLQQSGAELVKPGASVKLSCKASGYTFKYYDINWVRQRPEQGLEWIGWIFPGDGGTKYNETFKGKATLTTDKSSSTAYMQLSRLTSEDSAVYFCARGGTSVIRDAMDYWGQGTSVTVSSASTTAPSVFPLAPSCGTTSGATVALACLVLGYFPEPVTVSWNSGALTSGVHTFPAVLQASGLYSLSSMVTVPSSRWLSDTFTCNVAHPPSNTKVDKTVRKTDHPPGPKPCDCPKCPPPEAAGAPSIFIFPPKPKDTLSISRTPEVTCLVVDLGPDDSDVQITWFVDNTQVYTAKTSPREEQFNSTYRVVSVLPILHQDWLKGKEFKCKVNSKSLPSPIERTISKAKGQPHEPQVYVLPPAQEELSRNKVSVTCLIKSFHPPDIAVEWEITGQPEPENNYRTTPPQLDSDGTYFVYSKLSVDRSHWQRGNTYTCSVSHEALHSHHTQKSLTQSPGK
light: DIVLTQSPASLAVSLGQRATISCRASESVDNYGISFMHWYQQKPGQPPKLLIYRASNLESGIPARFSGSGSRTDFTLTINPVETDDVATYYCQQSNKDPLTFGAGTKLELKRSDAQPSVFLFQPSLDELHTGSASIVCILNDFYPKEVNVKWKVDGVVQNKGIQESTTEQNSKDSTYSLSSTLTMSSTEYQSHEKFSCEVTHKSLASTLVKSFQRSECQRE
In the case of B1, the “affinity (KD) to feline IL-31” value [1] is reported as “slightly superior”, the “affinity (KD) to canine IL-31” value [2] is reported as “slightly superior” and the “pruritus scores compared to placebo control” value [3, 8] is reported as “did not achieve a significant reduction in pruritus at any timepoint”.

B2: Feline 11E12 1.1: felinized 11E12, FEL_11E12_VH1 paired with FEL_11E12_VL1 (antibody, V domains shown)
VH: QVLLVQSGAEVKKPGASVKIFCKASGYSFTYYDINWLRQAPEQGLEWMGWIFPGDGGTKYNETFKGRLTLTADTSTNTVYMELSSLRSADTAMYYCARGGTSVIRDAMDYWGQGALVTVSS
VL: EIQMTQSPSSLSASPGDRVTITCRASESVDNYGISFMHWYQQKPGKVPKLLIYRASNLESGVPSRFSGSGSGTDFTLTISSLEPEDAATYYCQQSNKDPLTFGQGT
B2 was tested, and the “affinity (KD) to feline IL-31” value [1] was “loss of affinity”, the “affinity (KD) to canine IL-31” value [2] was “loss of affinity” and the “potency (IC50) against feline IL-31 in feline FCWF4 cells” value [4] was “loss of potency”. The “potency (IC50) against feline IL-31 in feline FCWF4 cells” value ([4]; listed as Felinized 11E12 1.1) was “approximately a two-fold decrease in potency”, the “potency (IC50) against feline IL-31 in canine DH82 cells” value [5] was “loss of potency” and the “pruritus scores compared to placebo control” value ([3]; 0.5 mg/kg antibody pre-bound with 0.5 μg/kg feline IL-31, days 0, 7, 21, 0.5 mg/kg) was “did not reduce pruritus at day zero”. For the same molecule, the “pruritus scores compared to placebo control” value ([3]; 0.5 mg/kg antibody pre-bound with 0.5 μg/kg feline IL-31, days 0, 7, 21, listed as feline 11E12 1.1, 0.5 mg/kg) was “lack of efficacy”.

B3: mouse: feline 15H05 chimera: mouse 15H05 variable regions on feline IgG constant regions (antibody)
heavy: QVQLQQSAAELARPGASVKMSCKTSGYTFTSYTIHWIKQRPGQGLEWIGNINPTSGYTENNQRFKDKTTLTVDRSSNTAYLQLHSLTSEDSAVYFCARWGFKYDGEWSFDVWGAGTTVTVSSASTTAPSVFPLAPSCGTTSGATVALACLVLGYFPEPVTVSWNSGALTSGVHTFPAVLQASGLYSLSSMVTVPSSRWLSDTFTCNVAHPPSNTKVDKTVRKTDHPPGPKPCDCPKCPPPEAAGAPSIFIFPPKPKDTLSISRTPEVTCLVVDLGPDDSDVQITWFVDNTQVYTAKTSPREEQFNSTYRVVSVLPILHQDWLKGKEFKCKVNSKSLPSPIERTISKAKGQPHEPQVYVLPPAQEELSRNKVSVTCLIKSFHPPDIAVEWEITGQPEPENNYRTTPPQLDSDGTYFVYSKLSVDRSHWQRGNTYTCSVSHEALHSHHTQKSLTQSPGK
light: DIQMNQSPSSLSASLGDTITVTCRASQGISIWLSWYQQKPGNIPKVLINKASNLHIGVPPRFSGSGSGTHFTLTITSLQPEDIATYYCLQSQTYPLTFGGGTKLEINRSDAQPSVFLFQPSLDELHTGSASIVCILNDFYPKEVNVKWKVDGVVQNKGIQESTTEQNSKDSTYSLSSTLTMSSTEYQSHEKFSCEVTHKSLASTLVKSFQRSECQRE
For B3, the “affinity (KD) to feline IL-31” value [1] was “lost some affinity”, the “affinity (KD) to canine IL-31” value [2] was “lost some affinity” and the “fold increased IC50 relative to mouse: feline 11E12 chimera” value ([4]; feline IL-31 induced pSTAT3 signaling in feline FCWF4 cells) was “approximately 2 fold”. For the same molecule, the “IC50 against canine IL-31” value [6] was 28.61 µg/mL and the “pruritus scores compared to placebo control” value [3, 8] was “significant improvement (p<0.05)”.

B4: ZIL9: fully canine anti IL-31 antibody, VH SEQ ID NO: 83, VL SEQ ID NO: 85 (antibody, listed as Canis familiaris, V domains shown)
VH: EVQLVESGGDLVKPPGSLRLSCVASGFTFSSYDMTWVRQAPGKGLQWVADVNSGGTGTAYAVAVKGRFTISRDNAKKTLYLQMNSLRAEDTAVYYCAKLGVRDGLSVWGQGTLVTVSS
VL: SSVLTQPPSVSVSLGQTATISCSGESLNEYYTQWFQQKAGQAPVLVIYRDTERPSGIPDRFSGSSSGNTHTLTISGARAEDEADYYCESAVDTGTLVFGGGTHLAVL
With B4 the “binding to equine IL-31 (Biacore)” value [7] was “cross-reacted”.
